Changes are numbered by the printed parent chain. Names may count otherwise. Each block holds one molecule with its values, some of them ahead of it.
Experiments:
CheW = CheW (UniProt P0A964); settings: cited from earlier work
[1] = molecular target: the molecule itself; assay: fluorescence polarisation; Perrin plot of a single dansylated protein at 0.2 uM; 0.2 M potassium phosphate pH 8.0, 0.05% beta-D-dodecylmaltoside, 10 mM beta-cyclodextrin; 5-25 C; apparent molecular weight
[2] = molecular target: T1, dansylated AHP1 (Arabidopsis), Q9ZNV9; assay: as above; settings: remark: other sources report otherwise
T1 chain: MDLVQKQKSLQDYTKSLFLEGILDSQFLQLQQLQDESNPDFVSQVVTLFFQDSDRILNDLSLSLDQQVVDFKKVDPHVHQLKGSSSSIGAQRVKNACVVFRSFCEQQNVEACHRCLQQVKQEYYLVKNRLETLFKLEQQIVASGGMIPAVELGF

[3] = molecular target: T1, dansylated AHP1 (Arabidopsis), Q9ZNV9; assay: fluorescence polarisation; Perrin plot of 2 uM ETR1 together with 0.2 uM dansylated AHP1; 0.2 M potassium phosphate pH 8.0, 0.05% beta-D-dodecylmaltoside, 10 mM beta-cyclodextrin; 5-25 C; apparent molecular weight; settings: remark: other sources report otherwise
[4] = molecular target: T2, AHP1-GFP(S65T), wild type Arabidopsis histidine-containing phosphotransfer protein 1 fused to green fluorescent protein (Arabidopsis), Q9ZNV9; assay: fluorescence polarisation; Perrin plot (anisotropy against temperature/viscosity) of 20 nM AHP1-GFP; 50 mM Tris-HCl pH 7.5, 100 mM KCl, 0.1% beta-D-dodecylmaltoside, 0.002% PMSF; 10-30 C, 0-20% glycerol; apparent molecular weight; settings: remark: other sources report otherwise
T2 chain: T1 chain

ETR1-D659E = molecular target: T3, ETR1-D659E (Arabidopsis, UniProt P49333 1-738, D659E); assay: fluorescence polarisation; ETR1 mutant (0.04-20 uM) titrated to 8 nM AHP1 mutant-GFP(S65T); 50 mM Tris-HCl pH 7.5, 100 mM KCl, 0.1% beta-D-dodecylmaltoside, 0.002% PMSF; fit to a single binding site; settings: both partners purified
T3 construct: Phosphomimetic of the receiver domain aspartate; also called ETR1 mutant mimicking permanent phosphorylation
T3 sequence (looked up): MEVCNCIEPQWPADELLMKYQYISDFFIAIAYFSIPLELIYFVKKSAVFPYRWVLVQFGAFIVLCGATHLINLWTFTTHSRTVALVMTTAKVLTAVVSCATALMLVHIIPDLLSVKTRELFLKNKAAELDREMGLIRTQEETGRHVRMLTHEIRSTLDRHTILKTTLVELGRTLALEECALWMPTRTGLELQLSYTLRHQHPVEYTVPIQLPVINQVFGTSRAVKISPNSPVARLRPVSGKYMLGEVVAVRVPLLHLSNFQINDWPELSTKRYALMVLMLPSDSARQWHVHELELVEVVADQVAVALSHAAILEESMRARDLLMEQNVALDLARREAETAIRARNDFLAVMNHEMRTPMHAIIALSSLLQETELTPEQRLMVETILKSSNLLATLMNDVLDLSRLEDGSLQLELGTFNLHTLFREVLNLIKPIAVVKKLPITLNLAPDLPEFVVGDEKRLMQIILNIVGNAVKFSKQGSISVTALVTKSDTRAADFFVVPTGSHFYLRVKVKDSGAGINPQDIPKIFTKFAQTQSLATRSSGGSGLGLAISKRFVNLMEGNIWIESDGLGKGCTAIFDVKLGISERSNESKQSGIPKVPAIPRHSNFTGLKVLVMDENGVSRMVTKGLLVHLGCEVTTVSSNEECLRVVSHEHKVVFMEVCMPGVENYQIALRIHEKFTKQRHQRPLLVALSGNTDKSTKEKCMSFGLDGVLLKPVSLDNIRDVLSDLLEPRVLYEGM

ETR1-D659A = molecular target: T4, ETR1-D659A (Arabidopsis, UniProt P49333 1-738, D659A); assay: as above; settings: both partners purified
T4 construct: Represents the non-phosphorylated state of the receiver domain
T4 sequence (looked up): T3 sequence (looked up) with E659A

CheW, sequence (P0A964 whole entry): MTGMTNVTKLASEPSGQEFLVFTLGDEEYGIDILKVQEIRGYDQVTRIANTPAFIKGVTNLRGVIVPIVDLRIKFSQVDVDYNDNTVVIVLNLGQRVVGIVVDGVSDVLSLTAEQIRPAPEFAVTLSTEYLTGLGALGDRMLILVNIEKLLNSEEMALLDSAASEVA

Molecule: CheA (from UniProt P07363)
Kd (CheW): 17 µM

B1: dansylated ETR1 (receptor, Arabidopsis, UniProt P49333 1-738, looked up)
chain: T3 sequence (looked up) with E659D
modifications: dansyl label (dansyl chloride; typical ratio of protein-dansyl labeling 1:4), positions not given
notes: In a dodecylmaltoside micelle; theoretical molecular weight printed as 84.9 kDa; also called ETR1 (dansylated); source: recombinant, purified from the bacterial host, then dansylated
stoichiometry N [1]: 2

B4: AHP1(H79A)-GFP(S65T) (natural protein, Arabidopsis, UniProt Q9ZNV9 1-154, looked up)
chain: T1 chain with H79A
notes: AHP1, Arabidopsis histidine-containing phosphotransfer protein 1
Kd (ETR1-D659E): 2.6 µM
Kd (ETR1-D659A): 15.4 µM

The remaining lines, values ahead:

stoichiometry N [2]: 2
stoichiometry N [3]: 2
B2: dansylated AHP1, Q9ZNV9 1-154 (natural protein)
chain: T1 chain
modifications: here or on the partner: dansyl label (dansyl chloride; typical ratio of protein-dansyl labeling 1:4), positions not given; dansyl label (dansyl chloride; typical ratio of protein-dansyl labeling 1:4), positions not given

stoichiometry N [4]: 2
B3: AHP1-GFP(S65T), wild type Arabidopsis histidine-containing phosphotransfer protein 1 fused to green fluorescent protein, Q9ZNV9 1-154 (natural protein)
chain: T1 chain

Kd (ETR1-D659E): 16.3 µM
Kd (ETR1-D659A): 3.6 µM
B5: AHP1(H79E)-GFP(S65T) (natural protein, Arabidopsis, UniProt Q9ZNV9 1-154, looked up)
chain: T1 chain with H79E
notes: AHP1, Arabidopsis histidine-containing phosphotransfer protein 1; also called AHP1 mutant mimicking permanent phosphorylation
